According to US12467929:

Tests used:
[1] = target: recombinant UBE3A protein (Homo sapiens (Human)) (UniProt Q05086); test: Simoa; capture GTX; SBG 75 pm; UBE3A 0.160 ng/ml
[2] = target: recombinant UBE3A protein (Homo sapiens (Human)) (UniProt Q05086); test: Simoa; capture GTX; SBG 75 pm; UBE3A 0.800 ng/ml
[3] = target: recombinant UBE3A protein (Homo sapiens (Human)) (UniProt Q05086); test: Simoa; capture GTX; SBG 100 pm; UBE3A 0.160 ng/ml
[4] = target: recombinant UBE3A protein (Homo sapiens (Human)) (UniProt Q05086); test: Simoa; capture GTX; SBG 150 pm; UBE3A 0.0320 ng/ml
[5] = target: recombinant UBE3A protein (Homo sapiens (Human)) (UniProt Q05086); test: Simoa; capture GTX; 3E5 0.1 ug/ml; UBE3A 20.0 ng/ml
[6] = target: recombinant UBE3A protein (Homo sapiens (Human)) (UniProt Q05086); test: Simoa; capture GTX; SBG 100 pm; UBE3A 0.00640 ng/ml
[7] = target: recombinant UBE3A protein (Homo sapiens (Human)) (UniProt Q05086); test: Simoa; capture GTX; SBG 150 pm; UBE3A 0.00128 ng/ml
[8] = target: recombinant UBE3A protein (Homo sapiens (Human)) (UniProt Q05086); test: Simoa; capture GTX; SBG 150 pm; UBE3A 0.00640 ng/ml
[9] = target: recombinant UBE3A protein (Homo sapiens (Human)) (UniProt Q05086); test: Simoa head-to-head, Table 11; capture GTX; UBE3A 20.0 ng/ml
[10] = target: recombinant UBE3A protein (Homo sapiens (Human)) (UniProt Q05086); test: 3-step Simoa, 120 min bead step; capture GTX; UBE3A 100 ng/ml
[11] = target: recombinant UBE3A protein (Homo sapiens (Human)) (UniProt Q05086); test: Simoa head-to-head, Table 10; capture MS 2F6; UBE3A 0.80 ng/ml
[12] = target: recombinant UBE3A protein (Homo sapiens (Human)) (UniProt Q05086); test: Simoa head-to-head, Table 11; capture MS 2F6; UBE3A 0.80 ng/ml
[13] = target: recombinant UBE3A protein (Homo sapiens (Human)) (UniProt Q05086); test: 3-step Simoa, 120 min bead step; capture GTX; UBE3A 0.00640 ng/ml
[14] = target: recombinant UBE3A protein (Homo sapiens (Human)) (UniProt Q05086); test: Simoa; capture GTX + helper beads; 3E5 0.2 ug/ml; UBE3A 0.160 ng/ml
[15] = target: recombinant UBE3A protein (Homo sapiens (Human)) (UniProt Q05086); test: Simoa; capture GTX + helper beads; 3E5 0.2 ug/ml; UBE3A 0.800 ng/ml
[16] = target: recombinant UBE3A protein (Homo sapiens (Human)) (UniProt Q05086); test: Simoa; capture GTX, no helper beads; 3E5 0.4 ug/ml; UBE3A 0.0320 ng/ml
[17] = target: recombinant UBE3A protein (Homo sapiens (Human)) (UniProt Q05086); test: Simoa; capture GTX, no helper beads; 3E5 0.2 ug/ml; UBE3A 0.00128 ng/ml
[18] = target: recombinant UBE3A protein (Homo sapiens (Human)) (UniProt Q05086); test: Simoa; capture GTX, no helper beads; 3E5 0.2 ug/ml; UBE3A 0.00640 ng/ml
[19] = target: recombinant UBE3A protein (Homo sapiens (Human)) (UniProt Q05086); test: 3-step Simoa; capture GTX; UBE3A 125 ng/ml
[20] = target: recombinant UBE3A protein (Homo sapiens (Human)) (UniProt Q05086); test: 2-step Simoa; capture GTX; UBE3A 0.122 ng/ml

Sequence of UniProt Q05086 (Q05086 whole entry): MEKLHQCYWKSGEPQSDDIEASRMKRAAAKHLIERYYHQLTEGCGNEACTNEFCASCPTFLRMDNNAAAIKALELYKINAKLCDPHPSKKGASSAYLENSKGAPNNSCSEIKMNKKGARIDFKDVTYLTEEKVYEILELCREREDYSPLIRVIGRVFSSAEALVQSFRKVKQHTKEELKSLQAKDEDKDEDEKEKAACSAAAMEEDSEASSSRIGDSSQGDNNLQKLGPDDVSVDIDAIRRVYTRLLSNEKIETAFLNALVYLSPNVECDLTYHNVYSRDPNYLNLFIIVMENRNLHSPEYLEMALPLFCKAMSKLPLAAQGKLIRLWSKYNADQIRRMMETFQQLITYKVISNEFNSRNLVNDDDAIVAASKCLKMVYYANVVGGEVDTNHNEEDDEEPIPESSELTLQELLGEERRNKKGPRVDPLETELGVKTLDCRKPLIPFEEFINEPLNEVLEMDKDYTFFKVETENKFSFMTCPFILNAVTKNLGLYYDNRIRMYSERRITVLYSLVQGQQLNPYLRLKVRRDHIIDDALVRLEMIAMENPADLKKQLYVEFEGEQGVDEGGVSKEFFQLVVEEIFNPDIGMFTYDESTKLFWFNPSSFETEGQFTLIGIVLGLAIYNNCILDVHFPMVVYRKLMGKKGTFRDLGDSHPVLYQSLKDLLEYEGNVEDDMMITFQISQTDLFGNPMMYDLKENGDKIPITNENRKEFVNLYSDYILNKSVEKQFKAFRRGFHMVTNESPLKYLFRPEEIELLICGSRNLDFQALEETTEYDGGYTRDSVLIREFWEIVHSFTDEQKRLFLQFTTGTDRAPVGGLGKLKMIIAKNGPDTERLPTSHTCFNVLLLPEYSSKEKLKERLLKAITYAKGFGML

anti-UBE3A antibody 3E5 (SAB1404508-100 ug, Millipore-Sigma)
AEB1 [1]: 0.0299
AEB2 [1]: 0.0294
AEB3 [1]: 0.03
Average AEB [1]: 0.0298
Signal to Background [1]: 6.82
AEB1 [2]: 0.078
AEB2 [2]: 0.115
AEB3 [2]: 0.126
Average AEB [2]: 0.106
Signal to Background [2]: 24.3
AEB1 [3]: 0.0582
AEB2 [3]: 0.0586
AEB3 [3]: 0.0574
Average AEB [3]: 0.0581
Signal to Background [3]: 6.93
AEB1 [4]: 0.0262
AEB2 [4]: 0.0285
AEB3 [4]: 0.0282
Average AEB [4]: 0.0276
Signal to Background [4]: 2.08
AEB1 [5]: 5.11
AEB2 [5]: 5.62
AEB3 [5]: 5.2
Average AEB [5]: 5.31
Signal to Background [5]: 276
AEB1 [6]: 0.0098
AEB2 [6]: 0.0098
AEB3 [6]: 0.0111
Average AEB [6]: 0.0103
Signal to Background [6]: 1.22
AEB1 [7]: 0.013
AEB2 [7]: 0.018
AEB3 [7]: 0.0134
Average AEB [7]: 0.0148
Signal to Background [7]: 1.12
AEB1 [8]: 0.0136
AEB2 [8]: 0.0149
AEB3 [8]: 0.014
Average AEB [8]: 0.0142
Signal to Background [8]: 1.07
AEB1 [9]: 0.78
AEB2 [9]: 0.821
Ave AEB [9]: 0.8
Signal to Background [9]: 97.8
AEB1 [10]: 7.86
AEB2 [10]: 8.12
Ave AEB [10]: 7.99
Signal to Background [10]: 4690
AEB1 [11]: 0.0353
AEB2 [11]: 0.037
Ave AEB [11]: 0.0361
Signal to Background [11]: 2.67
AEB1 [12]: 0.0183
AEB2 [12]: 0.0197
Ave AEB [12]: 0.019
Signal to Background [12]: 5.03
AEB1 [13]: 0.0054
AEB2 [13]: 0.0055
Ave AEB [13]: 0.0055
Signal to Background [13]: 3.22
AEB1 [14]: 0.0751
AEB2 [14]: 0.0703
Average AEB [14]: 0.0727
Signal to Background [14]: 7.51
AEB1 [15]: 0.252
AEB2 [15]: 0.261
Average AEB [15]: 0.257
Signal to Background [15]: 26.5
AEB1 [16]: 0.0366
AEB2 [16]: 0.037
Average AEB [16]: 0.0368
Signal to Background [16]: 1.88
AEB1 [17]: 0.0099
AEB2 [17]: 0.0139
Average AEB [17]: 0.0119
Signal to Background [17]: 1.23
AEB2 [18]: 0.012
Average AEB [18]: 0.012
Signal to Background [18]: 1.24

NB500-240 (Novus) (antibody)
AEB1 [19]: 0.122
AEB2 [19]: 0.122
Ave AEB [19]: 0.122
Signal to Background [19]: 55.8
AEB1 [20]: 0.004
AEB2 [20]: 0.0037
Ave AEB [20]: 0.0039
Signal to Background [20]: 1.18
